Reference: patent publication US9273093B2, “α4β7 peptide dimer antagonists” (Protagonist Therapeutics, Inc., priority 2012, dated 2016)
Bridges are numbered along the chain shown (N, C = ends). Where no end group is shown, it is not given here. [ ]: non-standard residue; d: D form. NMeR = CN[C@@H](CCCNC(=N)N)C(=O)O; Pen = CC(C)(S)[C@H](N)C(=O)O

Assay: Simulated Intestinal Fluid (SIF) Stability Assay
Format: in vitro ADME
Conditions: compared to SEQ ID NO: 39 with Cys or to monomer subunits
Protocol: Simulated Intestinal Fluid (SIF) Stability Assay
Studies were carried out in simulated intestinal fluid (SIF) to evaluate gastric stability of the dimer molecules of the instant invention. SIF was prepared by adding 6.8 g of monobasic potassium phosphate and 10.0 g of pancreatin to 1.0 L of water. After dissolution, the pH was adjusted to 6.8 using NaOH. DMSO stocks (2 mM) were first prepared for the test compounds. Aliquots of the DMSO solutions were dosed into 6 individual tubes, each containing 0.5 mL of SIF, which had been pre-warmed to 37° C.
The final test compound concentration was 20 μM. The vials were kept in a benchtop Thermomixer® for the duration of the experiment. At each timepoint (0, 5, 10, 20, 40, and 60 minutes), 1.0 mL of acetonitrile containing 1% formic acid was added to one vial to terminate the reaction. Samples were stored at 4° C. until the end of the experiment. […] Aliquots of the supernatant were removed, diluted 1:1 into distilled water containing internal standard, and analyzed by LCMS/MS. Percent remaining at each timepoint was calculated based on the peak area response ratio of test to compound to internal standard. Time 0 was set to 100%, and all later timepoints were calculated relative to time 0. Half-lives were calculated by fitting to a first-order exponential decay equation using GraphPad. […]

For “SEQ ID NO: 102: homodimer of monomer subunit with Pen in place of Cys and N-Me-Arg, dimerized at C-termini (K[Pen][NMeR]SDTL[Pen]W; disulfide 2-8 (inferred); also: homodimer dimerized at C-termini)”, the “stability in simulated intestinal fluids (SIF) (in words)” value was “increased stability significantly”.
